Assay results published in patent publication US20180128830A1, “DETECTION OF HUMAN CYTOMEGALOVIRUS IN BREAST CANCER” (priority 2015, published 2018).

What was measured:
[1] = tested on: MDA-MB-231 cells; experiment: Apoptosis, Annexin V-FITC flow cytometry; assay type: cell-based, human; details: 100 μM etoposide, 48 hrs
Experimental: (§1) Cells were seeded into 96-well dishes at a density of 1×10^4 cell per well in complete medium with varying doses of cmvIL-10, and then cell viability measured at the indicated time points using the Cell Titer Glo Assay kit according to manufacturer's instructions (Promega). DNA synthesis was measured in cells prepared in the same way using the BrdU Cell Proliferation ELISA Kit (Roche, Basel, Switzerland). For experiments using inhibitors, cells were cultivated in 96-well dishes as above with a final concentration of 10 μM inhibitor and BrdU incorporation evaluated after 72 hrs. For cell counts, cells were seeded into 6-well plates at a density of 2×10^5 cells per well, harvested via trypsinization, and counted using a hemacytometer at the indicated time points. The TACS Annexin V-FITC Detection Kit (Trevigen, Gaithersburg, Md.) was used to stain cells harvested from 70% confluent T75 flasks that had been treated with 100 μM etoposide for 48 hrs in the presence or absence of 100 ng/ml cmvIL-10. Cells were then analyzed via flow cytometry to detect fluorescence. For viability assays, Cell Titer Glo reagent was utilized to quantify cells that had been seeded into 96-well dishes at a density of 1×10^4 cell per well in complete medium with varying doses of etoposide in the presence or absence of 100 ng/ml cmvIL-10 as indicated

[2] = biological target: T1, CXCR4 (Homo sapiens, UniProt P61073); experiment: Calcium flux assay in HEK293 cells; assay type: cell-based; details: CXCL12 0.1 μg/ml alone
T1 construct: HEK293 cells, which endogenously express both CXCR4 and IL-10R; endogenous in cells; host or cells: HEK293
Experimental: Calcium flux assays were performed as described (Arnolds K L, et al. Virology 439:122-131.). Briefly, cells were resuspended in 2 mls calcium assay buffer (RPMI with 25 mM of HEPES) at a density of 5×10^5 cells/ml per sample. Each sample was labeled with 2 μl of Fluo-4AM (Invitrogen, Grand Island, N.Y.), wrapped in foil, at 37° C. for 30 minutes with agitation at 10-minute intervals. Following incubation, each sample was pelleted, resuspended in calcium assay buffer, and transferred into an eppendorf tube for flow cytometry using the BD C6 Accuri. Fluorescence intensity of each sample was measured for 20 seconds to establish baseline, then stimulus (CXCL12, in the presence or absence of cmvIL-10, as indicated) was added via micropipetting directly into the sample while fluorescence intensity was measured. Kinetic fluorescence intensity analysis was performed with FlowJo software v9.4.9 (FlowJo, Ashland, Oreg.). Purified recombinant cmvIL-10 was purchased from R&D Systems (Minneapolis, Minn.) and purified recombinant CXCL12 was purchased from Peprotech (Rocky Hill, N.J.). For each calcium flux assay, ionomycin (Sigma) was a positive control for Fluo-4AM loading and PBS served as a negative control for the addition of stimulus.

[3] = tested on: HEK293 cells; experiment: Transwell migration toward CXCL12; assay type: cell-based, human; details: 4 hours, 5.0 μm filter
Experimental: Transwell migration assays were performed by suspending cells at a density of 5×10^4 cells/ml in migration media (MEM or RPMI […] media plus 0.5% FBS). A total of 75 μl of cells was placed onto the upper chamber of a 96-well transwell system with 5.0 μm pores (Corning-Costar, Corning, N.Y.). The lower chamber contained 235 μl of migration media with CXCL12 plus or minus cmvIL-10 as indicated. Plates were incubated for four hours at 37° C., and then cells that traversed through the filter into the lower chamber were quantified via the addition of CellTitre-Glo reagent (Promega, Madison, Wis.) according to manufacturer's instructions.

[4] = tested on: MDA-MB-231 cells; experiment: DNA synthesis, BrdU Cell Proliferation ELISA; assay type: cell-based, human; details: 10 ng/ml of each cytokine, 72 hrs
Experimental: as §1

[5] = tested on: Stat1; experiment: Western blot for Stat1 phosphorylation in MDA-MB-231 cells; assay type: cell-based, human; details: 100 ng/ml, 15 min
Experimental: (§2) For western blotting, cells were treated with 100 ng/ml cmvIL-10, hIL-10, IFNγ or PBS for 15 min, then harvested into cell lysis buffer (150 mM NaCl, 20 mM HEPES, 0.5% Triton-X-100, 1 mM NaOV4, 1 mM EDTA, 0.1% NaN3). Lysates were clarified, proteins were separated via SDS-PAGE, and then transferred to a nitrocellulose membrane. Then membrane was incubated in blocking solution (5% milk+1×TBS-T) for 1 hr, then probed with primary antibody at a 1:1000 dilution (total Stat3 or pStat3, total Stat1 or pStat1) in blocking solution overnight at 4° C. After washing, the membranes were incubated with a 1:2000 dilution of appropriate AP-conjugated secondary antibody and bands were detected using Western Blue stabilized AP substrate (Promega, Madison, Wis.). For analysis of secreted proteins, supernatants were collected at various time points, analyzed by SDS-PAGE and then immunoblotted as above for cmvIL-10, hIL-10, or serpin E1/PAI.

[6] = tested on: Stat3; experiment: Western blot for Stat3 phosphorylation in MDA-MB-231 cells; assay type: cell-based, human; details: 100 ng/ml, 15 min
Experimental: as §2

T1 sequence (P61073 whole entry): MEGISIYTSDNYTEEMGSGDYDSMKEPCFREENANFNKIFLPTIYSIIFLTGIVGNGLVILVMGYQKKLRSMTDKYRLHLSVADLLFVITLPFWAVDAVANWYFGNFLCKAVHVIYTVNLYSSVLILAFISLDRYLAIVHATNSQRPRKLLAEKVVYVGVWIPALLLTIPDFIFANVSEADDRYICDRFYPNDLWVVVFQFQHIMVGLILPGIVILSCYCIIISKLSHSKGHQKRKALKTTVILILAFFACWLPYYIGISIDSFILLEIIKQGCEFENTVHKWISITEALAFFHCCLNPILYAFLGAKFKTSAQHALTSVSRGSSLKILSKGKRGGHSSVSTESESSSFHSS

Molecule: COc1cc([C@@H]2c3cc4c(cc3[C@@H](O[C@@H]3O[C@@H]5CO[C@@H](C)O[C@H]5[C@H](O)[C@H]3O)[C@H]3COC(=O)[C@H]23)OCO4)cc(OC)c1O [etoposide, reference compound]
- cells stained positive for Annexin V [1]: 30.9%

Molecule: CXCL12: purified recombinant CXCL12 chemokine from Peprotech
- calcium mobilization (fluorescence) [2]: rapid but transient increase in fluorescence
- CXCL12 dose giving maximal migration [3]: 0.1 ng/mL

Molecule: IL-6: purified recombinant IL-6 from R&D Systems
- cell proliferation (BrdU incorporation) [4]: inhibited cell growth

B1: IFNγ: purified recombinant interferon-gamma from R&D Systems (protein, UniProt P01579 24-161, looked up)
Interferon gamma: QDPYVKEAENLKKYFNAGHSDVADNGTLFLGILKNWKEESDRKIMQSQIVSFYFKLFKNFKDDQSIQKSVETIKEDMNVKFFNSNKKKRDDFEKLTNYSVTDLNVQRKAIHELIQVMAELSPAAKTGKRKRSQMLFRG
- cell proliferation (BrdU incorporation) [4]: inhibited cell growth
- Stat1 phosphorylation [5]: phosphorylated in response to IFNγ treatment only
- 83 kD band of phosphorylated Stat3 (pStat3) [6]: not
